Tests used:
TMEM16A-GFP (mouse) = TMEM16A-GFP (mouse) (UniProt Q8BHY3); assay: SiMPull, GFP photobleaching step count (stoichiometry)
mTMEM16A (mouse) = mTMEM16A (mouse) (UniProt Q8BHY3); assay: cell-based or functional assay
Chain of mTMEM16A (mouse) (Q8BHY3 whole entry): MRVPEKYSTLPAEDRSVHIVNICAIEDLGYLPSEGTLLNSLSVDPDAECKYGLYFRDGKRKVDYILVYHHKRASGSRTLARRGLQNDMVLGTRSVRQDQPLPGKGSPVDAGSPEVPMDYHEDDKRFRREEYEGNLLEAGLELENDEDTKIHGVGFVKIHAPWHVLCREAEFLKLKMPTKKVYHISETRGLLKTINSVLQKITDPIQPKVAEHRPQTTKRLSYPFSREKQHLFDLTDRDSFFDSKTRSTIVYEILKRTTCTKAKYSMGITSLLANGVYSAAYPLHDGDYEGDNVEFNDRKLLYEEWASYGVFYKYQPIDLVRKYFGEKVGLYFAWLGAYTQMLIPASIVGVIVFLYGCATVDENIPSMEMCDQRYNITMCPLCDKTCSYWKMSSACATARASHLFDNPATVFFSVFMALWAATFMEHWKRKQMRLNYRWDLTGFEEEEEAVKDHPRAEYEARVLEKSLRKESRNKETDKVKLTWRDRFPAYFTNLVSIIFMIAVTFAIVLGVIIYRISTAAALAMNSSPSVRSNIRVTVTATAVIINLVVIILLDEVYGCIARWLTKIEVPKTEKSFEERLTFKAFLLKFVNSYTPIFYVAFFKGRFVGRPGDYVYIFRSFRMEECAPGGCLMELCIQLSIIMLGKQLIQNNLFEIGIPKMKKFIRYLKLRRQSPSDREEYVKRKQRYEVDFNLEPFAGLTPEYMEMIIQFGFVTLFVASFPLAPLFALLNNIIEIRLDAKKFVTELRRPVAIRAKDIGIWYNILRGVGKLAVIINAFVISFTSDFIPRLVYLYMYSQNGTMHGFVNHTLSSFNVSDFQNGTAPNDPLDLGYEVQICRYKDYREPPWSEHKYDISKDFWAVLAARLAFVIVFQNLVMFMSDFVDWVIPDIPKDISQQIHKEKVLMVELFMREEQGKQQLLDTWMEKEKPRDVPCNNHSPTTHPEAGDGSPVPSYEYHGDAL

HA-KCNE1 (from UniProt P15382 1-129)
share of pulled-down spots with one-step photobleaching of TMEM16A-GFP (TMEM16A-GFP (mouse)): 20% | share of pulled-down spots with three-step photobleaching of TMEM16A-GFP (TMEM16A-GFP (mouse)): 10% | share of pulled-down spots with two-step photobleaching of TMEM16A-GFP (TMEM16A-GFP (mouse)): 70%

KCNE1 T7I (from UniProt P15382 1-129)
current density at +100 mV, HEK293T co-expressing TMEM16A and KCNE1 T7I (mTMEM16A (mouse)): 24.7 pA/pF

KCNE1S38G (from UniProt P15382 1-129)
current density at +100 mV, HEK293T co-expressing TMEM16A and KCNE1 S38G (mTMEM16A (mouse)): 6.96 pA/pF

KCNE1ΔCt (from UniProt P15382 1-66)
current density at +100 mV, HEK293T co-expressing TMEM16A and KCNE1ΔCt (mTMEM16A (mouse)): 25 pA/pF

KCNE1ΔNt16 (from UniProt P15382 16-129)
current density at +100 mV, HEK293T co-expressing TMEM16A and KCNE1ΔNt16 (mTMEM16A (mouse)): 25.4 pA/pF

KCNE1ΔNt30 (from UniProt P15382 30-129)
current density at +100 mV, HEK293T co-expressing TMEM16A and KCNE1ΔNt30 (mTMEM16A (mouse)): 25.2 pA/pF

KCNE1ΔNt (from UniProt P15382 43-129)
current density at +100 mV, HEK293T co-expressing TMEM16A and KCNE1ΔNt (mTMEM16A (mouse)): 6.56 pA/pF

hKCNE1 (from UniProt P15382 1-129)
current density at +100 mV with 1 mM BAPTA, HEK293T, TMEM16A co-expressed with KCNE1 (against TMEM16A alone) (mTMEM16A (mouse)): 22 pA/pF | current density at +100 mV, whole-cell patch clamp, HEK293T co-expressing both proteins (mTMEM16A (mouse)): 18.1 pA/pF
